Protein stability index data for 94 variants are collected here from the supplement of paper PMC10567573.

To fix the notation:
B1: STK38L (parent)
chain: FLPGGDMMTLLMKKDTLTEEETQF
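Note: lentivirally expressed fusions sorted by FACS into six bins by GFP to DsRed ratio, PSI derived from sequencing read proportions per bin multiplied by bin number.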

This data set covers variants of B1. As to the kind of experiment: protein stability index of a GFP-peptide fusion (GPS, HEK-293T) (PSI 1-6); higher = more stable. The following applies: c terminus: a fixed tail appended.
As for FLPGGDMCTLLMKKDTLTEEETQF [M8C], the protein stability index came to 3.33.

For the variant FLPGGDMMTLLMKKDPLTEEETQF [T16P], the protein stability index amounted to 3.02. Turning to FLPGGDMMTLLMKKDWLTEEETQF [T16W], the protein stability index was determined as 1.96. The same measure for FLPGGDMMTLLMKKDILTEEETQF [T16I]: 2.36. For FLPGGDMMTLLMKKDHLTEEETQF [T16H], the protein stability index was 2.48.

With FLPGGDMMTLLMKKDKLTEEETQF [T16K], the protein stability index was 2.31. The same measure for FLPGGDMMTLLMKKDRLTEEETQF [T16R]: 2.11; for FLPGGDMMTLLMKKDGLTEEETQF [T16G]: 2.43. Take FLPGGDMMTLLMKKDQLTEEETQF [T16Q]: the protein stability index is 2.17. To FLPGGDMMTLLMKKDFLTEEETQF [T16F] belongs 1.89; to FLPGGDMMTLLMKKDMLTEEETQF [T16M], 2; to FLPGGDMMTLLMKKDDLTEEETQF [T16D], 2.58. The same measure for FLPGGDMMTLLMKKDSLTEEETQF [T16S]: 2.13; for FLPGGDMMTLLMKKDCLTEEETQF [T16C]: 2.21. As to FLPGGDMMTLLMKKDYLTEEETQF [T16Y], the protein stability index is 2.24. FLPGGDMMTLLMKKDLLTEEETQF [T16L]: the protein stability index was found to be 1.74. As for FLPGGDMMTLLMKKDNLTEEETQF [T16N], the protein stability index came to 2.51.

On to FLPGGDMMTLLMKKDALTEEETQF [T16A], for which the protein stability index amounted to 2.4. As to FLPGGDMMTLLMKKDVLTEEETQF [T16V], the protein stability index is 2.33. The same measure for FLPGGDMMTLLMKKDELTEEETQF [T16E]: 2.19.

As to FLPGGDMMTLLMKIDTLTEEETQF [K14I], the protein stability index was 1.96. The same measure for FLPGGDMMTLLMKFDTLTEEETQF [K14F]: 2.39; for FLPGGDMMTLLMKWDTLTEEETQF [K14W]: 1.7.

With FLPGGDMMTLLMKCDTLTEEETQF [K14C], the protein stability index amounted to 2.55. The same measure for FLPGGDMMTLLMKHDTLTEEETQF [K14H]: 2.38. To FLPGGDMMTLLMKRDTLTEEETQF [K14R] belongs 1.96; to FLPGGDMMTLLMKVDTLTEEETQF [K14V], 1.62.

Turning to FLPGGDMMTLLMKSDTLTEEETQF [K14S], the protein stability index was 2.69. The same measure for FLPGGDMMTLLMKADTLTEEETQF [K14A]: 2.48; for FLPGGDMMTLLMKYDTLTEEETQF [K14Y]: 2.09; for FLPGGDMMTLLMKNDTLTEEETQF [K14N]: 1.81.

In the case of FLPGGDMMTLLMKEDTLTEEETQF [K14E], the protein stability index is 2.88. Consider FLPGGDMMTLLMKMDTLTEEETQF [K14M], for which the protein stability index worked out at 1.97. The same measure for FLPGGDMMTLLMKQDTLTEEETQF [K14Q]: 2.18. To FLPGGDMMTLLMKLDTLTEEETQF [K14L] belongs 1.89; to FLPGGDMMTLLMKDDTLTEEETQF [K14D], 2.92; to FLPGGDMMTLLMKPDTLTEEETQF [K14P], 2.46. Regarding FLPGGDMMTLLMKTDTLTEEETQF [K14T], the protein stability index is 2.27. For the variant FLPGGDMMTLLMKGDTLTEEETQF [K14G], the protein stability index is 2.25.

On to FLPGGDMMTLLMWKDTLTEEETQF [K13W], for which the protein stability index is 1.69.

In the case of FLPGGDMMTLLMNKDTLTEEETQF [K13N], the protein stability index is 2.49.

Regarding FLPGGDMMTLLMGKDTLTEEETQF [K13G], the protein stability index is 2.3. As to FLPGGDMMTLLMMKDTLTEEETQF [K13M], the protein stability index is 2.28.

Regarding FLPGGDMMTLLMTKDTLTEEETQF [K13T], the protein stability index is 2.69. Turning to FLPGGDMMTLLMPKDTLTEEETQF [K13P], the protein stability index came out at 2.24. On to FLPGGDMMTLLMFKDTLTEEETQF [K13F], for which the protein stability index came to 2.21. As to FLPGGDMMTLLMCKDTLTEEETQF [K13C], the protein stability index was determined as 1.67. The same measure for FLPGGDMMTLLMEKDTLTEEETQF [K13E]: 3.03; for FLPGGDMMTLLMLKDTLTEEETQF [K13L]: 2.05; for FLPGGDMMTLLMDKDTLTEEETQF [K13D]: 3.66.

FLPGGDMMTLLMAKDTLTEEETQF [K13A]: the protein stability index worked out at 2.21. Consider FLPGGDMMTLLMIKDTLTEEETQF [K13I], for which the protein stability index is 1.87.

With FLPGGDMMTLLMRKDTLTEEETQF [K13R], the protein stability index turned out to be 2.21.

Turning to FLPGGDMMTLLMQKDTLTEEETQF [K13Q], the protein stability index is 2.42. On to FLPGGDMMTLLMSKDTLTEEETQF [K13S], for which the protein stability index was 2.56.

As for FLPGGDMMTLLMHKDTLTEEETQF [K13H], the protein stability index worked out at 2.37.

Turning to FLPGGDMMTLLMYKDTLTEEETQF [K13Y], the protein stability index came out at 2.02. For FLPGGDMMTLLMVKDTLTEEETQF [K13V], the protein stability index was 1.95. For FLPGGDMMTLLMKKDTMTEEETQF [L17M], the protein stability index amounted to 2.53. In the case of FLPGGDMMTLLMKKDTCTEEETQF [L17C], the protein stability index turned out to be 2.36. The same measure for FLPGGDMMTLLMKKDTHTEEETQF [L17H]: 2.26; for FLPGGDMMTLLMKKDTDTEEETQF [L17D]: 3.2; for FLPGGDMMTLLMKKDTITEEETQF [L17I]: 2.11. On to FLPGGDMMTLLMKKDTFTEEETQF [L17F], for which the protein stability index worked out at 1.96. As for FLPGGDMMTLLMKKDTETEEETQF [L17E], the protein stability index turned out to be 3.35. As to FLPGGDMMTLLMKKDTGTEEETQF [L17G], the protein stability index turned out to be 2.37. The same measure for FLPGGDMMTLLMKKDTATEEETQF [L17A]: 2.95. With FLPGGDMMTLLMKKDTKTEEETQF [L17K], the protein stability index amounted to 2.51. To FLPGGDRMTLLMKKDTLTEEETQF [M7R] belongs 3.61; to FLPGGDTMTLLMKKDTLTEEETQF [M7T], 3.87; to FLPGGDSMTLLMKKDTLTEEETQF [M7S], 3.9. Regarding FLPGGDVMTLLMKKDTLTEEETQF [M7V], the protein stability index came to 2.85. The same measure for FLPGGDYMTLLMKKDTLTEEETQF [M7Y]: 2.81; for FLPGGDQMTLLMKKDTLTEEETQF [M7Q]: 3.65; for FLPGGDPMTLLMKKDTLTEEETQF [M7P]: 3.67.

Consider FLPGGDMMTLLHKKDTLTEEETQF [M12H], for which the protein stability index was 3.69. To FLPGGDMMTLLGKKDTLTEEETQF [M12G] belongs 3.72; to FLPGGDMMTLLWKKDTLTEEETQF [M12W], 1.95; to FLPGGDMMTLLPKKDTLTEEETQF [M12P], 3.5.

Regarding FLPGGDMMTLLCKKDTLTEEETQF [M12C], the protein stability index stood at 3.16. With FLPGGDMMTLLKKKDTLTEEETQF [M12K], the protein stability index was found to be 3.69. With FLPGGDMMTLLIKKDTLTEEETQF [M12I], the protein stability index came to 2.56. For the variant FLPGGDMMTLLVKKDTLTEEETQF [M12V], the protein stability index came out at 3.36. To FLPGGDMMTLLYKKDTLTEEETQF [M12Y] belongs 2.84. As for FLPGGDMMTLLAKKDTLTEEETQF [M12A], the protein stability index turned out to be 2.81. The same measure for FLPGGDMMTLLTKKDTLTEEETQF [M12T]: 3.49. Regarding FLPGGDMMTLLNKKDTLTEEETQF [M12N], the protein stability index worked out at 3.86. The same measure for FLPGGDMMTLLEKKDTLTEEETQF [M12E]: 3.68; for FLPGGDMMTLLLKKDTLTEEETQF [M12L]: 2.35. FLPGGDMMTLLSKKDTLTEEETQF [M12S]: the protein stability index amounted to 3.48. As for FLPGGDMMTLLRKKDTLTEEETQF [M12R], the protein stability index came out at 3.48.

On to FLPGGDMMTLLFKKDTLTEEETQF [M12F], for which the protein stability index is 2.54. FLPGGDMMTLLDKKDTLTEEETQF [M12D]: the protein stability index worked out at 4.06. To FLPGGDMMTLLQKKDTLTEEETQF [M12Q] belongs 3.25.
